Experimental data: the supplement of paper PMC9233669
This sample holds only a part of the variants without activity.

Experiments:
biotinyl-Phe-oxazolone = assay: self-aminoacylation, catalytic enhancement (BFO) (fold over background); higher = more active; k-Seq, kA / k0A0; sequences stand for … in GGGAAUGGAUCCACAUCUACGAAUUC…UUCACUGCAGACUUGACGAAGCUG
Procedure, shortened: (§1)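 Catalytic enhancement equals the median kA over the uncatalyzed rate, the latter read from the low-activity peak of a bimodal Gaussian fit. Values of kA came from fitting each sequence's fraction reacted to a pseudo-first-order model, with 1000 bootstraps. Reacted RNA was captured with streptavidin and quantified by triplicate qPCR and Illumina sequencing after 90 minutes at room temperature with 2–1250 μM biotinyl-aminoacyl-oxazolone and 0.43 μM mutagenized RNA pools bearing a 21-nt variable region.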

biotinyl-Ile-oxazolone = assay: self-aminoacylation, catalytic enhancement (BIO) (fold over background); higher = more active; k-Seq, kA / k0A0; sequences stand for … in GGGAAUGGAUCCACAUCUACGAAUUC…UUCACUGCAGACUUGACGAAGCUG
Procedure, shortened: as §1

biotinyl-Met-oxazolone = assay: self-aminoacylation, catalytic enhancement (BMO) (fold over background); higher = more active; k-Seq, kA / k0A0; sequences stand for … in GGGAAUGGAUCCACAUCUACGAAUUC…UUCACUGCAGACUUGACGAAGCUG
Procedure, shortened: as §1

biotinyl-Val-oxazolone = assay: self-aminoacylation, catalytic enhancement (BVO) (fold over background); higher = more active; k-Seq, kA / k0A0; sequences stand for … in GGGAAUGGAUCCACAUCUACGAAUUC…UUCACUGCAGACUUGACGAAGCUG
Procedure, shortened: as §1

biotinyl-Leu-oxazolone = assay: self-aminoacylation, catalytic enhancement (BLO) (fold over background); higher = more active; k-Seq, kA / k0A0; sequences stand for … in GGGAAUGGAUCCACAUCUACGAAUUC…UUCACUGCAGACUUGACGAAGCUG
Procedure, shortened: as §1

biotinyl-Trp-oxazolone = assay: self-aminoacylation, catalytic enhancement (BWO) (fold over background); higher = more active; k-Seq, kA / k0A0; sequences stand for … in GGGAAUGGAUCCACAUCUACGAAUUC…UUCACUGCAGACUUGACGAAGCUG
Procedure, shortened: as §1

Row | Sequence | self-aminoacylation (biotinyl-Phe-oxazolone) | self-aminoacylation (biotinyl-Ile-oxazolone) | self-aminoacylation (biotinyl-Met-oxazolone) | self-aminoacylation (biotinyl-Val-oxazolone) | self-aminoacylation (biotinyl-Leu-oxazolone) | self-aminoacylation (biotinyl-Trp-oxazolone)
1 | CUCCUUCAUACAAUCGGUCUG [Fam1A.1 aminoacylation ribozyme variant] | 0.839 | 0.652 | 0.609 | 0.664 | 0.771 | 0.794
2 | CUCUUUCAAACAAUCGGUCUG [Fam1A.1 aminoacylation ribozyme variant] | 14.2 | 0.972 | 1.13 | 0.908 | 1.21 | 9.95
3 | CUGCACCUAGGUCAUCGGGUG [Fam2.2 aminoacylation ribozyme variant] | 60 | 3.76 | 7.52 | 5.11 | 7.81 | 6.48
4 | CUGCUUCAAACAAUAGGUCUG [Fam1A.1 aminoacylation ribozyme variant] | 0.781 | 0.621 | 0.551 | 0.669 | 0.547 | 0.575
5 | CUGCUUCAAACAAUCGGUCCG [Fam1A.1 aminoacylation ribozyme variant] | 119 | 1.35 | 1.34 | 1.38 | 2.38 | 39.6
6 | CUGCUUCAAACAAUCUGUCUG [Fam1A.1 aminoacylation ribozyme variant] | 4.03 | 0.604 | 0.675 | 0.701 | 0.647 | 1.53
7 | CUGCUUCAAACAAUUGGUCUG [Fam1A.1 aminoacylation ribozyme variant] | 1.54 | 0.789 | 0.715 | 0.657 | 0.726 | 1.19
8 | CUGCUUCAAACGAUCGGUCUG [Fam1A.1 aminoacylation ribozyme variant] | 2.63 | 0.727 | 0.991 | 0.803 | 1.11 | 3.49
9 | CUGCUUCAGACAAUCGGUCUG [Fam1A.1 aminoacylation ribozyme variant] | 1.78 | 0.949 | 1.22 | 0.929 | 1.1 | 1.28
10 | CUGCUUGAAACAAUCGGUCUG [Fam1A.1 aminoacylation ribozyme variant] | 0.928 | 0.9 | 0.842 | 0.959 | 0.867 | 1.07
11 | CUUAACCUAGGUCAUCGGGUG [Fam2.2 aminoacylation ribozyme variant] | 15.8 | 2.91 | 4.25 | 2.69 | 4.78 | 4.21
12 | CUUAACCUGGUCAUCGAGUGA [Fam2.1 aminoacylation ribozyme variant] | 5.1 | 2.9 | 5.64 | 3.11 | 4.95 | 6.88
13 | CUUACCCCGGUCAUCGAGUGA [Fam2.1 aminoacylation ribozyme variant] | 19.8 | 3.44 | 6.51 | 3.92 | 6.2 | 6.76
14 | CUUACCCUGAUCAUCGAGUGA [Fam2.1 aminoacylation ribozyme variant] | 16.5 | 3.64 | 7.49 | 3.94 | 7.51 | 9.22
15 | CUUACCCUGGUCAUCAAGUGA [Fam2.1 aminoacylation ribozyme variant] | 4.44 | 1.67 | 2.58 | 1.93 | 2.58 | 3.4
16 | CUUACCCUGGUCAUCGACUGA [Fam2.1 aminoacylation ribozyme variant] | 0.459 | 1.1 | 0.673 | 0.739 | 0.833 | 1.31
17 | CUUACCCUGGUCAUCGAGUGG [Fam2.1 aminoacylation ribozyme variant] | 16.9 | 3.47 | 8.78 | 3.74 | 8.35 | 7.54
18 | CUUACCCUGGUCAUCUAGUGA [Fam2.1 aminoacylation ribozyme variant] | 29.7 | 3.75 | 7.9 | 3.89 | 8.12 | 10.4
19 | CUUCACCCAGGUCAUCGGGUG [Fam2.2 aminoacylation ribozyme variant] | 25.2 | 2.29 | 4.41 | 3.34 | 3.23 | 3.73
20 | CUUCACCUAGGUCACCGGGUG [Fam2.2 aminoacylation ribozyme variant] | 21.9 | 2.92 | 3.54 | 3.81 | 5.4 | 5.51
21 | CUUCACCUAGGUCAGCGGGUG [Fam2.2 aminoacylation ribozyme variant] | 9.81 | 3.62 | 3.27 | 3.88 | 4.96 | 4.01
22 | CUUCACCUAGGUCUUCGGGUG [Fam2.2 aminoacylation ribozyme variant] | 34.1 | 4.13 | 6.17 | 5.98 | 6.81 | 6.37
23 | CUUCUUCAAACAAUCGCUCUG [Fam1A.1 aminoacylation ribozyme variant] | 1.72 | 0.783 | 0.85 | 0.928 | 0.823 | 1.55
24 | CUUCUUCAAACAAUCGGCCUG [Fam1A.1 aminoacylation ribozyme variant] | 31.1 | 1.34 | 1.72 | 1.48 | 1.88 | 28.5
25 | CUUCUUCAAACAAUCGGUCUU [Fam1A.1 aminoacylation ribozyme variant] | 13.4 | 0.878 | 0.814 | 0.925 | 0.997 | 7.08
26 | CUUCUUCAAACACUCGGUCUG [Fam1A.1 aminoacylation ribozyme variant] | 0.651 | 0.938 | 1.04 | 0.977 | 0.791 | 0.901

Row | Sequence | self-aminoacylation (biotinyl-Phe-oxazolone) | self-aminoacylation (biotinyl-Ile-oxazolone) | self-aminoacylation (biotinyl-Met-oxazolone) | self-aminoacylation (biotinyl-Val-oxazolone) | self-aminoacylation (biotinyl-Leu-oxazolone) | self-aminoacylation (biotinyl-Trp-oxazolone)
27 | CUUCUUCAAACUAUCGGUCUG [Fam1A.1 aminoacylation ribozyme variant] | 1.22 | 1.26 | 0.943 | 1.01 | 1 | 0.962
28 | CUUUCCCUGGUCAUCGAGUGA [Fam2.1 aminoacylation ribozyme variant] | 7.03 | 4.62 | 8.78 | 5.04 | 8.95 | 10.6
29 | GAACACUUCAAGCAAUCGGUC [Fam1B.1 aminoacylation ribozyme variant] | 23.3 | 2.05 | 1.53 | 2.03 | 1.96 | 18.6
30 | GAACUUCAAACAAUCGGUCUG [Fam1A.1 aminoacylation ribozyme variant] | 65.3 | 1.85 | 1.7 | 1.66 | 2.4 | 35.8
31 | GACUUUGCUAAUAGUCGCAAG [Fam3.1 aminoacylation ribozyme variant] | 2.88 | 1.74 | 2.11 | 1.72 | 1.85 | 1.97
32 | GAGUUAGCUAAUAGUCGCAAG [Fam3.1 aminoacylation ribozyme variant] | 2.62 | 2.14 | 1.5 | 1.64 | 2.12 | 2.62
33 | GAGUUCGCUAAUAGUCGCAAG [Fam3.1 aminoacylation ribozyme variant] | 8.98 | 2.8 | 1.91 | 2.52 | 2.71 | 2.21
34 | GAGUUUGCCAAUAGUCGCAAG [Fam3.1 aminoacylation ribozyme variant] | 4.39 | 1.7 | 1.1 | 1.48 | 1.09 | 2.08
35 | GAGUUUGCUAAUAGUCGUAAG [Fam3.1 aminoacylation ribozyme variant] | 30.8 | 1.4 | 1.4 | 1.17 | 1.28 | 8.52
36 | GAGUUUGCUACUAGUCGCAAG [Fam3.1 aminoacylation ribozyme variant] | 1.59 | 1.31 | 1.04 | 1.47 | 1.66 | 1.99
37 | GAGUUUGCUAGUAGUCGCAAG [Fam3.1 aminoacylation ribozyme variant] | 1.92 | 1.21 | 1.28 | 1.04 | 0.89 | 0.876
38 | GAGUUUGCUCAUAGUCGCAAG [Fam3.1 aminoacylation ribozyme variant] | 7.43 | 1.72 | 1.73 | 1.59 | 2.12 | 2.62
39 | GCACACGUCAAGCAAUCGGUC [Fam1B.1 aminoacylation ribozyme variant] | 11.5 | 2.63 | 2.47 | 2.85 | 2.18 | 3.95
40 | GCACACUUCAAGCAAUCCGUC [Fam1B.1 aminoacylation ribozyme variant] | 1.76 | 1.66 | 1.2 | 1.98 | 1.71 | 2.01
41 | GCACACUUCAAGCAAUCGGUA [Fam1B.1 aminoacylation ribozyme variant] | 2.95 | 2.84 | 1.98 | 2.5 | 2.26 | 3.53
42 | GCACACUUCAAGCGAUCGGUC [Fam1B.1 aminoacylation ribozyme variant] | 1.41 | 1.66 | 1.33 | 1.82 | 1.54 | 2.19
43 | GCACACUUUAAGCAAUCGGUC [Fam1B.1 aminoacylation ribozyme variant] | 1.39 | 1.3 | 1.04 | 1.17 | 1.11 | 1.44
44 | GCACUUCAAACAAUCGGUCUG [Fam1A.1 aminoacylation ribozyme variant] | 156 | 2.33 | 2.32 | 2.16 | 4.11 | 62.3
45 | GCUACCCUGGUCAUCGAGUGA [Fam2.1 aminoacylation ribozyme variant] | 29.5 | 6.27 | 11.4 | 6.39 | 12.3 | 15.5
46 | GGUCACCUAGGUCAUCGGGUG [Fam2.2 aminoacylation ribozyme variant] | 30.3 | 4.07 | 4.37 | 5.01 | 3.98 | 6.88
47 | GUACUUCAAAAAAUCGGUCUG [Fam1A.1 aminoacylation ribozyme variant] | 7.83 | 1.57 | 1.16 | 1.11 | 1.62 | 7.93
48 | GUACUUCAAACAAACGGUCUG [Fam1A.1 aminoacylation ribozyme variant] | 1.72 | 1.43 | 1.22 | 1.15 | 1.31 | 1.15
49 | GUACUUCAAACAACCGGUCUG [Fam1A.1 aminoacylation ribozyme variant] | 4.78 | 1.67 | 1.21 | 1.54 | 1.23 | 2.02
50 | GUACUUCAAACAAUCGGUCAG [Fam1A.1 aminoacylation ribozyme variant] | 7.14 | 1.5 | 1.31 | 1.34 | 1.43 | 7.34
51 | GUACUUCAAACAAUCGGUCUC [Fam1A.1 aminoacylation ribozyme variant] | 39.5 | 1.5 | 1.65 | 1.4 | 2.06 | 26.5
